# Assay results as given in PMC5880276.
# Target: HpiC1
# Assay: crystal structure
substance,measurement,value
HpiC1 (enzyme),stoichiometry N,2
